Laboratory results as given in patent US10000775B2, “Biosynthesis of 1-undecene and related terminal olefins” (The Regents of the University of California, priority 2013, dated 2018).

Experiment: In vitro activity of PFL_4321 and PFL_0203 toward fatty acids with various chain lengths
Format: biochemical
Design: key to In vitro activity toward C8:0 / In vitro activity toward C10:0 / In vitro activity toward C12:0 / In vitro activity toward C14:0 / In vitro activity toward C16:0: ✓: indicates production of the corresponding 1-alkene from the indicated substrate; x: indicates failure to produce the corresponding 1-alkene from the indicated substrate
Method: A typical condition is as follows: 1 mL of reaction mixture contains 50 mM MES buffer (pH 6.2), 300 mM NaCl, 100 μM (NH4)2Fe(SO4)2, 1 mM ascorbic acid, 100 μM fatty acid substrate or analogs, and 10 μM enzyme. The reaction was performed in a sealed headspace vial at 30° C., initiated by adding lauric acid and quenched by injecting equal volume of 5 M NaOH. 1-Undecene production was analyzed and quantified by using the SPME-GCMS method. To determine the kinetic parameters of PFL_4321 on lauric acid, initial velocities at 1, 10, 20, 50, 100, and 150 μM of lauric acid were measured (25 mM lauric acid solution was prepared by adding 0.5% tergitol and heating at 65° C. for 10 min). The reactions were quenched at 2, 4, 6, 8, and 10 seconds, and the acquired turnover rates were fit to the Michaelis-Menten equation using GraphPad Prism to obtain kcat and Km. The kcat and Km of myristic acid and capric acid were determined similarly.
Unless otherwise noted, all experiments with PFL_0203 as described herein were performed using similar assays, procedures, and techniques as used in a given corresponding experiment as described in Example 1.
The fatty acid substrate specificity of PFL_0203 was investigated in a series of in vitro experiments. […] Thus, PFL_4321 and PFL_0203 share some overlap in suitable substrates; PFL_4321 is able to act on C10-C14 fatty acid substrates, and PFL_0203 is able to act on C10-C16 fatty acid substrates.

B1: PFL_4321: protein of 261 amino acids from Pseudomonas fluorescens Pf-5; non-heme iron (II)-dependent enzyme converting medium-chain fatty acids into terminal olefins (protein, listed as Pseudomonas fluorescens)
chain: MIDTFSRTGPLMEAASYPAWTQQLIQDCSESKRRVVEHELYQRMRDNKLSAKVMRQYLIGGWPVVEQFALYMAQNLTKTRFARHPGEDMARRWLMRNIRVELNHADYWVHWSRAHGVTLEDLQAQQVPPELHALSHWCWHTSSADSLIVAIAATNYAIEGATGEWSALVCSNGIYAAAFPEEDRKRAMKWLKMHAQYDDAHPWEALEIIVTLAGLNPTKALQAELRQAICKSYDYMYLFLERCMQQEKTAVTRERLALAEG
For B1, the “In vitro activity toward C8:0” value (substrate C8:0) was “x”, the “In vitro activity toward C10:0” value (substrate C10:0) was “✓” and the “In vitro activity toward C12:0” value (substrate C12:0) was “✓”. The “In vitro activity toward C14:0” value (substrate C14:0) was “✓” and the “In vitro activity toward C16:0” value (substrate C16:0) was “x”.
